This note sets out measurements from patent US20060148030A1, “Nuclear receptor err y 3” (FUJISAWA PHARMACEUTICAL CO., LTD, priority 2002, published 2006).

Some results are limits rather than exact numbers.

Experiment [1] concerns the target T1, ERα (Homo sapiens, UniProt P03372).
T1 construct: expressed in transfected cells; host or cells: CV-1 (African green monkey kidney)
T1 sequence (P03372 1-595): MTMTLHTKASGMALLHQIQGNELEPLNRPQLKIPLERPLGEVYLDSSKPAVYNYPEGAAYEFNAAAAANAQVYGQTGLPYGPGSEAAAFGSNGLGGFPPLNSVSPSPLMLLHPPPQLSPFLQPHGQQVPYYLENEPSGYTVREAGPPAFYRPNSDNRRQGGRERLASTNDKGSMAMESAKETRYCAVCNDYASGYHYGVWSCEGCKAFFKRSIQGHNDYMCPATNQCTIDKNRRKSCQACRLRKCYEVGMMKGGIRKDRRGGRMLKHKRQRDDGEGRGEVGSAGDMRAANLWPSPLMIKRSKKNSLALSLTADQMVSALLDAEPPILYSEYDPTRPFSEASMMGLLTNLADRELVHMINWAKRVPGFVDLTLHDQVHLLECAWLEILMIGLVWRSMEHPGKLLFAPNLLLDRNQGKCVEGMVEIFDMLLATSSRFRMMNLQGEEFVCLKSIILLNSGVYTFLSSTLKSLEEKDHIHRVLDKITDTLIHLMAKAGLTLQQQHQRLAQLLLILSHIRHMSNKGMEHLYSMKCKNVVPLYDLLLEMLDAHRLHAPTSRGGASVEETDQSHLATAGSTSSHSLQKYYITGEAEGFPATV
In words: Reporter gene assay, ERRγ3 or ERRγ2 coexisted with ERα in CV-1 cells. In kind it is cell-based. Particulars: for enhancement of the transcriptional activation function of ERα: absence of 4-hydroxytamoxifen. On the procedure: (§1) The reporter gene assay was performed using CV-1 cells (African green monkey kidney-derived cell line) as hosts. Host cells were transfected with luciferase reporter plasmids and expression plasmids for ERRγ3, ERRγ2, or both. They were then exposed to 4-hydroxytamoxifen at different concentrations (0, 10^−10 to −10^−5 M) for 24 hours, whereupon luciferase activity within the cells was measured.
(§2) Transfection was performed as follows: CV-1 cells were suspended at 2×10^5 cells/2.5 ml in DMEM medium supplemented with 10% fetal bovine serum, 2000 U/l of penicillin G, and 100 mg/l streptomycin. These cells were seeded to a 6-well plate at 2.5 ml/well, and cultured for 18 to 24 hours in a CO2 incubator at 37° C. in the presence of 5% CO2. 1 μg of each of the transcription factor expression plasmid, the luciferase reporter plasmid, and another luciferase reporter plasmid for normalizing the measured value (pRL-TK), were dissolved in Opti-MEM (Gibco BRL) to total of 150 μl. 7 μl of the cell transfection reagent LipofectAMINE 2000 (Gibco BRL) was diluted in 143 μl of Opti-MEM, and this was added to the mixture drop by drop while stirring. The mixture was incubated for 20 minutes.
The LipofectAMINE-DNA mixture was diluted in 1.5 ml of Opti-MEM, and added to cells that had been twice washed with 1 ml of PBS(−). The cells were cultured for four hours. The transfection reagent was removed from the culture, and 200 μl of trypsin/EDTA was added to the cells, which were then incubated at 37° C. for five minutes. […] of DMEM was added to suspend the cells, which were transferred to a centrifuge tube, and centrifuged for three minutes at 1000 rpm. After centrifugation, the cells were resuspended in DMEM to a concentration of 1.6×10^4 cells/100 μl, and 100 μl samples were seeded to a 96-well plate. When evaluating agents, a two-fold concentrated solution was made by pre-diluting a 1000 times concentrated agent DMSO solution with culture medium. 50 μl of the solution was mixed with 50 μl of a cell suspension at 1.6×10^4 cells/50 μl, and the culture was incubated in a CO2 incubator at 37° C. and 5% CO2 for 24 hours.
Luciferase activity was measured using the Dual-Luciferase™ Reporter Assay System (Promega). The culture supernatant was removed from each well of the 96-well plate and washed once with 100 μl of PBS(−). 20 μl of ×1 PLB (Passive Lysis Buffer) was added, and the mixture was incubated at room temperature for 15 minutes, and then stored at −20° C. in the freezer until use. […] The protocol for measurement was as follows: 50 μl of Luciferase Assay Reagent II was added to each well, stirred for 0.3 seconds and measured for one second. […] of Stop&Glo™ Reagent was then added, stirred for 0.3 seconds, and measured for one second. […] Average values and standard errors were calculated from triplicate samples.
To confirm whether or not ERRγ3 can regulate the transcription-controlling function of nuclear receptors other than ERRγ2, ERRγ3's function of regulating the transcription-controlling activity of nuclear receptors related to ERRγ (ERα, ERβ, and TR) was evaluated using a reporter gene assay. […] In addition to 4-hydroxytamoxifen, the cells were also contacted with 10^−5 M of (R)-estradiol in experiments related to ERα and ERβ, and 10^−5 M of thyroxine in the experiment related to TR.
The transfected cells were contacted with varying concentrations of 4-hydroxytamoxifen in the absence of […] or presence of 10^−7 M of β-estradiol.
Background: A reporter such as luciferase makes a cellular process visible.

The test system of experiment [2] is ERRγ2. In words: Reporter gene assay, ERRγ3 coexisted with ERRγ2, ERE luciferase reporter in CV-1 cells. Particulars: FIG. 15. The format is cell-based, human. On the procedure:
as §1
as §2, with “The mixture was incubated for 20 minutes.” left out
Luciferase activity was measured using the Dual-Luciferase™ Reporter Assay System (Promega). […] The protocol for measurement was as follows: 50 μl of Luciferase Assay Reagent II was added to each well, stirred for 0.3 seconds and measured for one second.

Sequence of ERRγ2 (P62508 whole entry): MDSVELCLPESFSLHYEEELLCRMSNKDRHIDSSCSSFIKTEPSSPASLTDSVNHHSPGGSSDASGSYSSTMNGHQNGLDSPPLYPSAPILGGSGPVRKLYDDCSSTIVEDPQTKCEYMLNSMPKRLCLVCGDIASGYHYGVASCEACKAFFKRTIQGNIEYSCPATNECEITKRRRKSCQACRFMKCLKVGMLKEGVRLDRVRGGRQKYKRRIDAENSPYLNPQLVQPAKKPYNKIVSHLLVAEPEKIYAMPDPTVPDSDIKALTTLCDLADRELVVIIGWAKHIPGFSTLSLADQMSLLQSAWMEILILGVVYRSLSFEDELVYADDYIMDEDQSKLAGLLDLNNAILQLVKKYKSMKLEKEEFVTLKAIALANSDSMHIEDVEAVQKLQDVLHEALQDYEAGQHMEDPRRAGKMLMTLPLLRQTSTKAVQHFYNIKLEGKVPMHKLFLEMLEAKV

For the molecule 4-hydroxytamoxifen [reference compound], in experiment [1] (in the presence of the ligand, 10^−5 M (R)-estradiol, CV-1 cells), the “effect of 4-hydroxytamoxifen on the function of ERRγ3 on ERα” value is recorded as “increased dependent on the concentration of 4-hydroxytamoxifen”. Also, the “effect of 4-hydroxytamoxifen on the transcription enhancing function of ERRγ3 on ERα” value in experiment [1] (β-estradiol absent or 10^−7 M, 4-hydroxytamoxifen at high concentrations, FIGS. 19-20) was “reduced in the presence of 4-hydroxytamoxifen at high concentrations”. In addition, the “4-hydroxytamoxifen concentration at which the enhancing function of ERRγ3 on ERRγ2 was reduced” value in experiment [2] (CV-1 cells, 24 hours exposure) was ≥ 10^−6 M.

B1: ERRγ3: novel ERRγ isoform, nuclear receptor protein of 396 amino acids (SEQ ID NO: 2) lacking part of the DNA binding domain (protein, listed as Homo sapiens)
chain: MSNKDRHIDSSCSSFIKTEPSSPASLTDSVNHHSPGGSSDASGSYSSTMNGHQNGLDSPPLYPSAPILGGSGPVRKLYDDCSSTIVEDPQTKCEYMLNSMPKRLCLVCGDIASGYHYGVASCEACKAFFKRTIQGVRLDRVRGGRQKYKRRIDAENSPYLNPQLAQPAKKPYNKIVSHLLVAEPEKIYAMPDPTVPDSDIKALTTLCDLADRELVVIIGWAKHIPGFSTLSLADQMSLLQSAWMEILILGVVYRSLSFEDELVYADDYIMDEDQSKLAGLLDLNNAILQLVKKYKSMKLEKEEFVTLKAIALANSDSMHIEDVEAVQKLQDVLHEALQDYEAGQHMEDPRRAGKMLMTLPLLRQTSTKAVQHFYNIKLEGKVPMHKLFLEMLEAKV
As to B1, in experiment [1] (ERRγ3 with ERα, 10^−5 M (R)-estradiol, CV-1 cells, FIG. 16), the “function enhancement of the transcription-controlling activity of ERα” value is 13-74%. Moreover, the “enhancement of the transcriptional activation function of ERα” value in experiment [1] (absence of β-estradiol, FIG. 19) was 64%; in experiment [1] (presence of 10^−7 M β-estradiol, FIG. 20), 18%. Further, the “enhancement of the transcriptional activation function of ERRγ2” value in experiment [2] (ERRγ3 coexisted with ERRγ2, CV-1 cells, ERE luciferase reporter) was 53-68%.
